Laboratory results: the RNAGym collection of RNA variant scans (doi:10.1073/pnas.2313332121)

B1: TPR t1 (parent)
chain: GACCAAUCUGCCCUCAGAGCUCGAGAACAUCUUCGGAUGCAGAGGAGGCAGGCUUCGGUGGCGCGAUAGCGCCAACGUCCUCAACCUCCAAUGCAUCCCACCACAUGAUGAUGCCUGAAGAGCCUUGGUUUUUUG

Variants of: B1
Assay: polymerase ribozyme fitness, log enrichment relative to wild type (log ratio); higher = more active; in vitro selection for triplet polymerase activity
Method in brief: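 Libraries of mutants in each subunit of a heterodimeric triplet polymerase ribozyme were generated by PCR and transcribed. In triplicate, each went through one in vitro selection round: annealing with biotinylated primer, partner subunit and triplets; frozen incubation at −7 °C; gel excision of extended constructs; streptavidin-bead capture; RT-PCR. Fitness, taken from Illumina sequencing of input and output libraries, is the logarithm of a genotype's enrichment over wild-type enrichment, averaged across replicates with inverse-variance weights. The logarithm is base 2, and genotypes needed ≥10 input reads and ≥1 read per output to be kept.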

| Variant | polymerase ribozyme fitness (log ratio) |
| --- | --- |
| GACCAAUCUGCCCUCAGAGCUCGAGAACAUCUUCGGAUGCAGAGGAGGCAGGCUUCGGUGGCACGAUAGCGCCAACGUCCUCAACCUCCAAUGCAUCCCACCACAUGAUGAUGCCAGAAGAGCCUUGGUUUUUUG | -3.92 |
| GACCAAUCUGCCCUCAGAGCUCGAGAACAUCUUCGGAUGCAGAGGAGGCAGGCUUCGGUGGCACGAUAGCGCCAACGUCCUCAACCUCCAAUGCAUCCCACCACAUGAUGAUGCCGGAAGAGCCUUGGUUUUUUG | -3.24 |
| GACCAAUCUGCCCUCAGAGCUCGAGAACAUCUUCGGAUGCAGAGGAGGCAGGCUUCGGUGGCACGAUAGCGCCAACGUCCUCAACCUCCAAUGCAUCCCACCACAUGAUGAUGCCUGAAGAGCCUUCGUUUUUUG | -1.62 |
| GACCAAUCUGCCCUCAGAGCUCGAGAACAUCUUCGGAUGCAGAGGAGGCAGGCUUCGGUGGCACGAUAGCGCCAACGUCCUCAACCGCCAAUGCUUCCCACCACAUGAUGAUGCCUGAAGAGCCUUGGUUUUUUG | -1.19 |
| GACCAAUCUGCCCUCAGAGCUCGAGAACAUCUUCGGAUGCAGAGGAGGCAGGCUUCGGUGGCACGAUAGCGCCAACGCCCUCAACCUCCAAUGCAUCCCACCACAUGAUGAUGCCUGAAGAGACUUGGUUUUUUG | -0.604 |
| GACCAAUCUGCCCUCAGAGCUCGAGAACAUCUUCGGAUGCAGAGGAGGCAGGCUUCGGUGGCACGAUAGCGCCAACGUCCUCAACCUCCAAUGCAUCCCACCACAUGAUGAUGCCCGAAGAGUCUUGGUUUUUUG | -4.18 |
| GACCAAUCUGCCCUCAGAGCUCGAGAACAUCUUCGGAUGCAGAGGAGGCAGGCUUCGGUGGCCCGAUAGCGCCAACGUCCUCUACCUCCAAUGCAUCCCACCACAUGAUGAUGCCUGAAGAGCCUUGGUUUUUUG | -1.48 |
| GACCAAUCUGCCCUCAGAGCUCGAGAACAUCUUCGGAUGCAGAGGAGGCAGGCUUCGGUGGCCCGAUAGCGCCAUCGUCCUCAACCUCCAAUGCAUCCCACCACAUGAUGAUGCCUGAAGAGCCUUGGUUUUUUG | -0.329 |
| GACCAAUCUGCCCUCAGAGCUCGAGAACAUCUUCGGAUGCAGAGGAGGCAGGCUUCGGUGGCCCGAUAGCGCCAACGUCCUCAGCCUCCAAUGAAUCCCACCACAUGAUGAUGCCUGAAGAGCCUUGGUUUUUUG | -3.04 |
| GACCAAUCUGCCCUCAGAGCUCGAGAACAUCUUCGGAUGCAGAGGAGGCAGGCUUCGGUGGCCCGAUAGCGCCAACGUCCUCAACCUCCAUUGCAUCCCACCACAUGAUGAUGCCUGAAGAGCCUUGGUUUUUUG | -2.7 |
| GACCAAUCUGCCCUCAGAGCUCGAGAACAUCUUCGGAUGCAGAGGAGGCAGGCUUCGGUGGCACGAUAGCGCCAACGCCCUCAACCUCCAAUACAUCCCACCACAUGAUGAUGCCUGAAGAACCUUGGUUUUUUG | -2.28 |
| GACCAAUCUGCCCUCAGAGCUCGAGAACAUCUUCGGAUGCAGAGGAGGCAGGCUUCGGUGGCACGAUAGCGCCAACGUCCUCAACCUCCAAUGCAUCCCACCACAUGAUGAUGCCUGAAGAGCCUUGGUUUUGUG | -1.23 |
| GACCAAUCUGCCCUCAGAGCUCGAGAACAUCUUCGGAUGCAGAGGAGGCAGGCUUCGGUGGCCCGAUAGCGCCAACGUCCUCAACCUCCAAUGCAUCCCACCGCAUGAUGAUGCCUGAAGAGCCUUGGUUUUUUG | -5.66 |
| GACCAAUCUGCCCUCAGAGCUCGAGAACAUCUUCGGAUGCAGAGGAGGCAGGCUUCGGUGGCACGAUAGCGCCAACGUCCUCAACCUCCAAUGCAUCCCACCACAUGAUUAUGCCUGAAGAGCCUUGGUUUUUUG | -3.42 |
| GACCAAUCUGCCCUCAGAGCUCGAGAACAUCUUCGGAUGCAGAGGAGGCAGGCUUCGGUGGCACGAUAGCGCCAACGUCCUCAACCUCCAAUGCAUCCCACCACAUGAUCAUGCCUGAAGAGCCUUGGUUUUUUG | -5.57 |
| GACCAAUCUGCCCUCAGAGCUCGAGAACAUCUUCGGAUGCAGAGGAGGCAGGCUUCGGUGGCACGAUAGCGCCAACGUCCUCAACCUCCAAUGCAUCCCACCACAUGAUAAUGCCUGAAGAGCCUUGGUUUUUUG | -2.72 |
| GACCAAUCUGCCCUCAGAGCUCGAGAACAUCUUCGGAUGCAGAGGAGGCAGGCUUCGGUGGCACGAUAGCGCCAACGUCCUCAACCUCCAAUGCAUCCCACCACAUUAUGAUGCCUGAAGAGCCUUGGUUUUUUG | -5.22 |
| GACCAAUCUGCCCUCAGAGCUCGAGAACAUCUUCGGAUGCAGAGGAGGCAGGCUUCGGUGGCCCGAUAGCGCCAACGUCCUCAACCUCCAGUGCAUCCCACCACAUGAUGAUACCUGAAGAGCCUUGGUUUUUUG | -2.9 |
| GACCAAUCUGCCCUCAGAGCUCGAGAACAUCUUCGGAUGCAGAGGAGGCAGGCUUCGGUGGCACGAUAGCGCCAACGUCCUCAACCUCCAAUGCAUCCCACCACAUGAUGAAGCCUGAAGAGCCUUGGUUUUUUG | -0.0284 |
| GACCAAUCUGCCCUCAGAGCUCGAGAACAUCUUCGGAUGCAGAGGAGGCAGGCUUCGGUGGCACGAUAGCGCCAACGUCCUCAACCUCCAAUCCAUCCCACCACAUGAUGAUUCCUGAAGAGCCUUGGUUUUUUA | -4.37 |
| GACCAAUCUGCCCUCAGAGCUCGAGAACAUCUUCGGAUGCAGAGGAGGCAGGCUUCGGUGGCACGAUAGCGCCAACGACCUCAACCUCCAAUGCAUCCCACCACAUGAUGAUGCCUGAUGAGCCUUGGUUUUUUG | -1.76 |

| Variant | polymerase ribozyme fitness (log ratio) |
| --- | --- |
| GACCAAUCUGCCCUCAGAGCUCGAGAACAUCUUCGGAUGCAGAGGAGGCAGGCUUCGGUGGCACGAUAGCGCCAACGUCCUCAACCUCCAAUGCAUCCCACCACAUGAUGAUGCCUGAACAGCCUUGGUUUUUUG | 0.337 |
| GACCAAUCUGCCCUCAGAGCUCGAGAACAUCUUCGGAUGCAGAGGAGGCAGGCUUCGGUGGCACGAUAGCGCCAACGUCCUCAACCUCCAAUGCAUCCCACCACAUGAUGAUGCCUGAAGAGCCUAGGUUUUUUG | -2.47 |
| GACCAAUCUGCCCUCAGAGCUCGAGAACAUCUUCGGAUGCAGAGGAGGCAGGCUUCGGUGGCACGAUAGCGCCAACGUCCUCAACCUCCAAAGCAUCCCACCACAUGAUGAUGCCUGAAGAGCCUUGGUUUUUUG | -4.6 |
| GACCAAUCUGCCCUCAGAGCUCGAGAACAUCUUCGGAUGCAGAGGAGGCAGGCUUCGGUGGCACGAUAGCGCCAACGUCCUCAACCUCCAAUGCAACCCACCACAUGAUGAUGCCUGAAGAGCCUUGGUUUUUUG | -1.81 |
| GACCAAUCUGCCCUCAGAGCUCGAGAACAUCUUCGGAUGCAGAGGAGGCAGGCUUCGGUGGCACGAUAGCGCCAACGUCCUCAACCUCCAAUGCACCCCACCACAUGAUGAUGCCUGAAGAGCCUUGGUUUUUUG | -1.54 |
| GACCAAUCUGCCCUCAGAGCUCGAGAACAUCUUCGGAUGCAGAGGAGGCAGGCUUCGGUGGCACGAUAGCGCCAACGUCCUCAACCCCCAAUGCAUCCCACCACAUGAUGAUGCCUGAAGAGCCUUGGUUUUUUG | -0.482 |
| GACCAAUCUGCCCUCAGAGCUCGAGAACAUCUUCGGAUGCAGAGGAGGCAGGCUUCGGUGGCACGAUAGCGCCAACGUCCUCAACCUCCAAUGCAUCCCACCACAUGAGGAUGCCUGAAGAGCCUUGGUUUUUUG | -4.41 |
| GACCAAUCUGCCCUCAGAGCUCGAGAACAUCUUCGGAUGCAGAGGAGGCAGGCUUCGGUGGCACGAUAGCGCCAACGUCCUCAACCUCCAAUGCAUCCCACCACAUGAUGAUGCCUGAAGAGCCUUGGAUUUUUG | -1.64 |
| GACCAAUCUGCCCUCAGAGCUCGAGAACAUCUUCGGAUGCAGAGGAGGCAGGCUUCGGUGGCACGAUAGCGCCAACGUCCUCAACCUCCAAUGCAUCCCACCACAUGAUGAUGCCUGAAAAGCCUUGGUUUUUUC | -0.591 |
| GACCAAUCUGCCCUCAGAGCUCGAGAACAUCUUCGGAUGCAGAGGAGGCAGGCUUCGGUGGCACGAUAGCGCCAACGUCCUCAACCUCCAAUGCAUCCCACCACAUGAUGAUGCCUGAAGAGCCUUGGUCUUUUG | -0.399 |
| GACCAAUCUGCCCUCAGAGCUCGAGAACAUCUUCGGAUGCAGAGGAGGCAGGCUUCGGUGGCACGAUAGCGCCAACGUCCUCAACCUCCAAUGCAUCCCACCACAUGAUGAUGCCUGAAGAGCCUUGGUGUUUUG | -0.913 |
| GACCAAUCUGCCCUCAGAGCUCGAGAACAUCUUCGGAUGCAGAGGAGGCAGGCUUCGGUGGCACGAUAGCGCCAACGUCCUCAACCUCCAAUGCAUCCCACCACAUGAUGAUGCCUCAAGAGCCUUGGUUUUUUG | -3.7 |
| GACCAAUCUGCCCUCAGAGCUCGAGAACAUCUUCGGAUGCAGAGGAGGCAGGCUUCGGUGGCACGAUAGCGCCAACGUCCUCAACCUCCAAUGCAUCCCACCACAUGAUGAUGCCUAAAGAGCCUUGGUUUUUUG | -2.26 |
| GACCAAUCUGCCCUCAGAGCUCGAGAACAUCUUCGGAUGCAGAGGAGGCAGGCUUCGGUGGCACGAUAGCGCCAACUUUCUCAACCUCCAAUGCAUCCCCCCACAUGAUGAUGCCUGAAGAGCCUUGGUUUUUUG | -2.62 |
| GACCAAUCUGCCCUCAGAGCUCGAGAACAUCUUCGGAUGCAGAGGAGGCAGGCUUCGGUGGCACGAUAGCGCCAACGUCCUCAACCUCCAAUCCAUCCCACCACAUGAUGAUUCCUGAAGAGCCUUGGUUUUUUG | -5.1 |
| GACCAAUCUGCCCUCAGAGCUCGAGAACAUCUUCGGAUGCAGAGGAGGCAGGCUUCGGUGGCACGAUAGCGCCAACGUCCUCAACCUCCAAUGCAUCCCACCACAUGAUGAUGCCUGAAGAGCCUUGGUUAUUUG | -1.11 |
| GACCAAUCUGCCCUCAGAGCUCGAGAACAUCUUCGGAUGCAGAGGAGGCAGGCUUCGGUGGCCCGAUAGCGCCAACGUCCUCAACCUCCAAUGCAUCCCACCACGUGAUGAUGCCUGAACAGCCUUGGUUUUUUG | -2.96 |
| GACCAAUCUGCCCUCAGAGCUCGAGAACAUCUUCGGAUGCAGAGGAGGCAGGCUUCGGUGGCCCGAUAGCGCCAGCGUCCUCAAACUCCAAUGCUUCCCCCCACAUGAUGAUGCGUGAAGAGCCUCGGUUUUUUG | -5.24 |
| GACCAAUCUGCCCUCAGAGCUCGAGAACAUCUUCGGAUGCAGAGGAGGCAGGCUUCGGUGGCACGAUAGCGCCAACGUCCUCAACCUCCAAUGCAUCCCACCACAUGAUGAUGCCUGAAGAGCCUUGAUUUUUUG | -2.19 |
| GACCAAUCUGCCCUCAGAGCUCGAGAACAUCUUCGGAUGCAGAGGAGGCAGGCUUCGGUGGCACGAUAGCGCCAACGUCCUCAACCUCCAAUGCAUCCCACCACAUGAUGAUGCCUGAAGAGCCUUGCUUUUUUG | -3.34 |
| GACCAAUCUGCCCUCAGAGCUCGAGAACAUCUUCGGAUGCAGAGGAGGCAGGCUUCGGUGGCACGAUAGCGCCAACGUCCUCAACCUCCAAUUCAUCCCACCACAUGAUGAUGCCUGAAGAGCCUUGGUUUUUUG | -2.58 |
